Source: patent US20200024330A1

Assays:
Test in all cases: cell-based or functional assay
[1] = target: HIV-1 MGRM-D-001 envelope glycoprotein (Env) on pseudovirus (HIV-1)
[2] = target: HIV-1 Env of isolate MG RM-AG-005 (HIV-1)
[3] = target: HIV-1 Env of isolate MG RM-AG-006 (HIV-1)
[4] = target: HIV-1 Env of isolate 92UG005 (subtype D) (HIV-1)
[5] = target: HIV-1 Env of isolate MG RM-AG-003 (HIV-1)
[6] = target: HIV-1 APV17 envelope glycoprotein (Env) on pseudovirus (HIV-1)
[7] = target: HIV-1 MGRM-F1-013 Env (pseudovirus) (HIV-1)
[8] = target: HIV-1 IAVI-C22 envelope glycoprotein (Env) on pseudovirus (HIV-1)
[9] = target: HIV-1 APV-6 envelope glycoprotein (Env) on pseudovirus (HIV-1)
[10] = target: HIV-1 NL43 envelope glycoprotein (Env) (HIV-1)
[11] = target: HIV-1 Env of isolate MGRM-A-012 (HIV-1)
[12] = target: HIV-1 Env of isolate VLGCA1 (HIV-1)
[13] = target: HIV-1 Env of isolate MGRM-F1-010 (HIV-1)
[14] = target: HIV-1 MGRM-C-026 envelope glycoprotein (Env) (HIV-1)
[15] = target: HIV-1 Env of isolate 94KE105 (HIV-1)
[16] = target: HIV-1 MGRM-C-028 envelope glycoprotein (Env) (HIV-1)
[17] = target: HIV-1 JRCSF envelope glycoprotein (Env) (HIV-1) (UniProt P20871)
[18] = target: HIV-1 Env of isolate MGRM-A-003 (HIV-1)
[19] = target: HIV-1 92TH021 envelope protein (Env) on pseudotyped virus (HIV-1 isolate 92TH021)
[20] = target: HIV-1 Env of isolate MGRM-A-005 (HIV-1)
[21] = target: HIV-1 Env of isolate MGRM-F1-004 (HIV-1)
[22] = target: HIV-1 Env of isolate MGRM-A-009 (HIV-1)
[23] = target: HIV-1 93IN905 envelope glycoprotein (Env) (HIV-1)
[24] = target: HIV-1 Env of isolate MGRM-A-013 (HIV-1)
[25] = target: HIV-1 Env of isolate MGRM-A-007 (HIV-1)
[26] = target: HIV-1 JR-CSF envelope protein (Env) on pseudotyped virus (HIV-1 isolate JR-CSF) (UniProt P20871)
[27] = target: HIV-1 MGRM-C-027 envelope glycoprotein (Env) (HIV-1)
[28] = target: HIV-1 MGRM-AG-005 Env (on pseudovirus) (HIV-1)
[29] = target: HIV-1 envelope glycoprotein (Env) of isolate MGRM-C-014, on pseudovirus (HIV-1)
[30] = target: HIV-1 94UG103 Env (on pseudovirus) (HIV-1)
[31] = target: HIV-1 92UG024 Env (on pseudovirus) (HIV-1)
[32] = target: HIV-1 93UG077 Env (on pseudovirus) (HIV-1)
[33] = target: HIV-1 MGRM-D-001 Env (on pseudovirus) (HIV-1)
[34] = target: HIV-1 CMU02 Env (on pseudovirus) (HIV-1)
[35] = target: HIV-1 JRCSF Env (on pseudovirus) (HIV-1) (UniProt P20871)
[36] = target: HIV-1 envelope glycoprotein (Env) of isolate MGRM-C-019, on pseudovirus (HIV-1)
[37] = target: HIV-1 92UG005 Env (on pseudovirus) (HIV-1)
[38] = target: HIV-1 envelope glycoprotein (Env) of isolate MGRM-C-026, on pseudovirus (HIV-1)
[39] = target: HIV-1 APV6 Env (on pseudovirus) (HIV-1)
[40] = target: HIV-1 APV13 Env (on pseudovirus) (HIV-1)
[41] = target: HIV-1 envelope glycoprotein (Env) of isolate MGRM-C-022, on pseudovirus (HIV-1)
[42] = target: HIV-1 envelope glycoprotein (Env) of isolate MGRM-C-015, on pseudovirus (HIV-1)

Sequence of PGT-142 (4995_E20) (antibody) (VH): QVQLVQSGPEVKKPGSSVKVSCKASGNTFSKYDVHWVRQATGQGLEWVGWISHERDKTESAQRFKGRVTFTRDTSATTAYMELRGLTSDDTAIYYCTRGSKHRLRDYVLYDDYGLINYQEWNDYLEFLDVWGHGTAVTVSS
Sequence of PGT-142 (4995_E20) (antibody) (VL): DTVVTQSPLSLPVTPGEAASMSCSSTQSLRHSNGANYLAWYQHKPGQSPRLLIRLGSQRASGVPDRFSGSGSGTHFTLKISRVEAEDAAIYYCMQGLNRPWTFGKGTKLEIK
Sequence of 1443_C16 (PG16) (TCN-116) (antibody) (VH): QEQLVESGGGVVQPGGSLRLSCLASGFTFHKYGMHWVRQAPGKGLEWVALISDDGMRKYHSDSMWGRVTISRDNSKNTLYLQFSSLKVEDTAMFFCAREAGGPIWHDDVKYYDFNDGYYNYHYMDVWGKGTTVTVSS
Sequence of 1443_C16 (PG16) (TCN-116) (antibody) (VL): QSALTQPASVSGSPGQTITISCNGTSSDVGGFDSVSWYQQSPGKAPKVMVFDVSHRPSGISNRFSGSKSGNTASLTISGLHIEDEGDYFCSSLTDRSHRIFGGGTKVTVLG

Substance: 4858_P08 (PGT-123) (antibody)
- IC50 (ug/ml), neutralizing activity [1]: 0.215 µg/mL
- IC50, pseudovirus neutralization [1]: 0.215 µg/mL
- IC80, pseudovirus neutralization [1]: 0.678 µg/mL
- IC90 (pseudovirus neutralization) [1]: 1.31 µg/mL
- IC95, pseudovirus neutralization [1]: 2.33 µg/mL
- neutralization IC50 [2]: 0.149 µg/mL
- neutralization IC50 [3]: 0.014 µg/mL
- IC50 (µg/mL), pseudovirus neutralization [4]: 9.79 µg/mL
- neutralization IC50 [5]: > 50 µg/mL
- IC50 (ug/ml), neutralizing activity [6]: 0.18 µg/mL
- IC50, pseudovirus neutralization [6]: 0.18 µg/mL
- IC80, pseudovirus neutralization [6]: 0.539 µg/mL
- IC90 (pseudovirus neutralization) [6]: 1.01 µg/mL
- IC95, pseudovirus neutralization [6]: 1.75 µg/mL

Substance: 5145_B14 (PGT-127) (antibody)
- neutralization IC50 [2]: > 50 µg/mL
- neutralization IC50 [3]: 0.021 µg/mL
- IC50 (µg/mL), pseudovirus neutralization [4]: 1.11 µg/mL
- neutralization IC50 [5]: > 50 µg/mL

Substance: b12 (antibody)
- IC50 (µg/ml), pseudovirus neutralization [7]: > 50 µg/mL
- IC90 (pseudovirus neutralization) [8]: 29.6 µg/mL
- IC90 (pseudovirus neutralization) [9]: > 50 µg/mL

Substance: 1496_C09 (PG9) (TCN-109) (antibody)
- IC50 (µg/ml), pseudovirus neutralization [7]: 0.56 µg/mL
- IC50 neutralization [10]: 0.687 µg/mL
- IC50 (µg/mL), pseudovirus neutralization [11]: 19.3 µg/mL
- IC50 (µg/mL), pseudovirus neutralization [12]: 0.069 µg/mL
- IC50 (µg/mL), pseudovirus neutralization [13]: 0.012 µg/mL
- IC50 neutralization [14]: 0.113 µg/mL
- IC50 (µg/mL), pseudovirus neutralization [15]: 37.9 µg/mL
- IC50 neutralization [16]: 0.121 µg/mL
- IC90 (pseudovirus neutralization) [9]: 1.96 µg/mL
- IC50 neutralization [17]: 0.0048 µg/mL
- IC50 [18]: 1.94 µg/mL
- IC50, pseudovirus neutralization, 1 hour Virus/Ab Incubation [19]: 0.0612 µg/mL
- IC50, pseudovirus neutralization, 18 hour Virus/Ab Incubation [19]: 0.0571 µg/mL
- IC50 [20]: 0.75 µg/mL
- IC50 (µg/mL), pseudovirus neutralization [21]: 0.175 µg/mL
- IC50 [22]: 0.023 µg/mL
- IC50 neutralization [23]: 0.048 µg/mL
- IC50 (µg/mL), pseudovirus neutralization [24]: 0.122 µg/mL
- IC50 [25]: 1.06 µg/mL
- IC50, pseudovirus neutralization, 1 hour Virus/Ab Incubation [26]: < 0.0025 µg/mL
- IC50, pseudovirus neutralization, 18 hour Virus/Ab Incubation [26]: < 0.0025 µg/mL
- IC50 neutralization [27]: 2.45 µg/mL

Substance: PGT-142 (4995_E20) (antibody)
- IC50 (ug/ml), pseudovirus neutralization [28]: 0.22 µg/mL
- IC50, pseudovirus neutralization [29]: 6.02 µg/mL
- IC50 (ug/ml), pseudovirus neutralization [30]: > 10 µg/mL
- IC50 (ug/ml), pseudovirus neutralization [31]: > 10 µg/mL
- IC50 (ug/ml), pseudovirus neutralization [32]: > 10 µg/mL
- IC50 (ug/ml), pseudovirus neutralization [33]: > 10 µg/mL
- IC50 (ug/ml), pseudovirus neutralization [34]: > 10 µg/mL
- IC50 (ug/ml), pseudovirus neutralization [35]: 0.0085 µg/mL
- IC50, pseudovirus neutralization [36]: 0.003 µg/mL
- IC50 (ug/ml), pseudovirus neutralization [37]: > 10 µg/mL
- IC50, pseudovirus neutralization [38]: > 50 µg/mL
- IC50 (ug/ml), pseudovirus neutralization [39]: 5.42 µg/mL
- IC50 (ug/ml), pseudovirus neutralization [40]: > 10 µg/mL
- IC50, pseudovirus neutralization [41]: 0.086 µg/mL
- IC50, pseudovirus neutralization [42]: 0.038 µg/mL

Substance: 1443_C16 (PG16) (TCN-116) (antibody)
- IC90 (pseudovirus neutralization) [8]: > 50 µg/mL
- IC90 (pseudovirus neutralization) [9]: 44.3 µg/mL
- IC50, pseudovirus neutralization, 1 hour Virus/Ab Incubation [19]: 0.136 µg/mL
- IC50, pseudovirus neutralization, 18 hour Virus/Ab Incubation [19]: 0.0435 µg/mL
- IC50, pseudovirus neutralization, 1 hour Virus/Ab Incubation [26]: < 0.0025 µg/mL
- IC50, pseudovirus neutralization, 18 hour Virus/Ab Incubation [26]: < 0.0025 µg/mL

Substance: 4877_D15 (PGT-122) (antibody)
- IC50 (ug/ml), neutralizing activity [1]: 0.867 µg/mL
- neutralization IC50 [2]: 33.9 µg/mL
- neutralization IC50 [3]: 0.028 µg/mL
- IC50 (µg/mL), pseudovirus neutralization [4]: > 50 µg/mL
- neutralization IC50 [5]: 43.7 µg/mL
- IC50 (ug/ml), neutralizing activity [6]: 0.522 µg/mL

Substance: 1495_C14 (PGC14) (antibody)
- IC50 (µg/ml), pseudovirus neutralization [7]: 6 µg/mL
- IC50, pseudovirus neutralization, 1 hour Virus/Ab Incubation [19]: > 50 µg/mL
- IC50, pseudovirus neutralization, 18 hour Virus/Ab Incubation [19]: > 50 µg/mL
- IC50, pseudovirus neutralization, 1 hour Virus/Ab Incubation [26]: > 50 µg/mL
- IC50, pseudovirus neutralization, 18 hour Virus/Ab Incubation [26]: > 50 µg/mL

Substance: 5147_N06 (PGT-130) (antibody)
- IC50 (ug/ml), neutralizing activity [1]: > 10 µg/mL
- IC50 (ug/ml), neutralizing activity [6]: > 10 µg/mL
